Literature values, collected in article PMC3253530.
Where two headings read alike, the source gives them in different places.

Legend:
[1] = target: PTPζ (Homo sapiens) (UniProt P23471)
[2] = target: PTPζ (Homo sapiens) (UniProt P23471); remark: listed apart in the source
[3] = target: LRP-1 (Homo sapiens) (UniProt Q07954)

Chain of UniProt P23471 (P23471 25-1636): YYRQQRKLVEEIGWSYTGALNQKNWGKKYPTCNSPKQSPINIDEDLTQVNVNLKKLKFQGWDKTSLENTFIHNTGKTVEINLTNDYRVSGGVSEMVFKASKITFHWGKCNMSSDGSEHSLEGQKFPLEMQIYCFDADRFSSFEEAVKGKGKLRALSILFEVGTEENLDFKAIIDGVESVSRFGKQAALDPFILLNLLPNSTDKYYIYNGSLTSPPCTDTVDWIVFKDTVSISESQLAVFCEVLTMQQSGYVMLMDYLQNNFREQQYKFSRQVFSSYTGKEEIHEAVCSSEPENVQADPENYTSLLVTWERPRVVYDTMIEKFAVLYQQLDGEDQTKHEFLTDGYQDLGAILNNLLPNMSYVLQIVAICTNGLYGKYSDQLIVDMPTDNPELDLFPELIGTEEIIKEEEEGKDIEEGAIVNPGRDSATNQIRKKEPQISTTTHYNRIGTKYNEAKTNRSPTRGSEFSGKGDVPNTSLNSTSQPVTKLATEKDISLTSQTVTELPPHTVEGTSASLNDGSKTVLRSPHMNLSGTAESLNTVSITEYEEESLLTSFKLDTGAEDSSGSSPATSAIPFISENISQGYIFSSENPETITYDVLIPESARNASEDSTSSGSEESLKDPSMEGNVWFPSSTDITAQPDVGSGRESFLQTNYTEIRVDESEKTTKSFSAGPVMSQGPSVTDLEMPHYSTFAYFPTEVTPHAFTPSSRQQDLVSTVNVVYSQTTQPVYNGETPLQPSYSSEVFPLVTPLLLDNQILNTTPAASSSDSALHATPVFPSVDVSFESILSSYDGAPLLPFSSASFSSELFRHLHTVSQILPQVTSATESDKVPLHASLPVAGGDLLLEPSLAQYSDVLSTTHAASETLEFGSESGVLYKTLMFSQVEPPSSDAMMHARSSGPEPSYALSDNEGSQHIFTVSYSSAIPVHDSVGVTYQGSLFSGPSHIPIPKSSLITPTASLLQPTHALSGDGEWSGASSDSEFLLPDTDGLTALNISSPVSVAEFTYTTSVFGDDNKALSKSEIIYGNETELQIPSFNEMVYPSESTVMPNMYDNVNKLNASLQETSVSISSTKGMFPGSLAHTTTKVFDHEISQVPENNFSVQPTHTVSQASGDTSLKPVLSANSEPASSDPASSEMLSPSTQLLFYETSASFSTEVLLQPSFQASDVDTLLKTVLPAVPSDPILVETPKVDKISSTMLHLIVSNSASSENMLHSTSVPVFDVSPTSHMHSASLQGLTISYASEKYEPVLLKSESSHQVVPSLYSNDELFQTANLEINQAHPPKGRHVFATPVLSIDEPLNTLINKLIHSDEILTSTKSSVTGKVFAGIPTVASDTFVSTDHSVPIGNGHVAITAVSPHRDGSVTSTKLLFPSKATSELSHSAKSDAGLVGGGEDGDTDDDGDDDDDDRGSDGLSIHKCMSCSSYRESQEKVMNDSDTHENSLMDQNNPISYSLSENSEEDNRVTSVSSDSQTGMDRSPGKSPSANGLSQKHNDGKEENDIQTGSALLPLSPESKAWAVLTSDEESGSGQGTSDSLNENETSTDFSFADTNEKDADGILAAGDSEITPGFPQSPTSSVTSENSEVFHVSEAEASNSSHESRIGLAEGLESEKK

Midkine (from UniProt P21741)
Kd [1]: 8.8 nM | Kd [2]: 0.56 nM | Kd [3]: 3.5 nM
